Assay results: patent US20070098681A1 (published 2007)

How the values were obtained:
DR5-IgG [1] = biological target: DR5-IgG (human); test: BIAcore SPR; KD relative to Flag.Apo2L.WT
DR4-IgG [2] = biological target: T1, DR4-IgG (human); test: BIAcore SPR; KD relative to Flag.Apo2L.WT
T1 construct: Mature DR4 ECD (amino acids 1-218); Made in human 293 cells; also called DR4 receptor immunoadhesin

DR4-IgG [3] = biological target: T1, DR4-IgG; test: AlphaQuest displacement of biotinylated Apo2L/TRAIL from receptor-IgG; ratio to Flag-Apo2L.WT
Text: (§1) This assay produces a signal when a “donor” and “acceptor” bead are brought in close proximity facilitating singlet oxygen-mediated, fluorescence resonance energy transfer. […] The acceptor bead is coated with Staphylococcal Protein A and is used to capture the receptor-IgG protein.

DcR2-IgG = biological target: T2, DcR2-IgG (UniProt Q9UBN6 56-211, limits assumed); test: as above
T2 construct: not shown: IgG portion, not described
T2 sequence (looked up): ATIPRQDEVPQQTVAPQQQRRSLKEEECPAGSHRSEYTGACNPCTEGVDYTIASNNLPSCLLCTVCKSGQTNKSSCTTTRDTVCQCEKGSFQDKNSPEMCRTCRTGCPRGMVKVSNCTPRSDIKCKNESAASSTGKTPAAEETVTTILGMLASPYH
Text: as §1

DcR1 receptor-IgG = biological target: T3, DcR1 receptor-IgG (UniProt O14798 26-236, limits assumed); test: as above
T3 construct: Receptor-IgG protein captured on Protein A acceptor beads; construct not described; not shown: IgG portion, not described
T3 sequence (looked up): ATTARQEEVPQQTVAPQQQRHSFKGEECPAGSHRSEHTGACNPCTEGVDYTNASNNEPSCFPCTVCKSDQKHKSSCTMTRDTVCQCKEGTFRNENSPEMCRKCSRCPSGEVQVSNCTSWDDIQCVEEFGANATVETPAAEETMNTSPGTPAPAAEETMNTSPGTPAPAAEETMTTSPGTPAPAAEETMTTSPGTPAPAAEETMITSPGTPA
Text: as §1

DR5-IgG [4] = biological target: DR5-IgG (human); test: as above
Text: as §1

DR5-IgG [5] = biological target: DR5-IgG (human); test: BIAcore SPR, receptor-IgG immobilised; ratio to wild-type Apo2L/TRAIL(114-281)
Procedure: (§2) Briefly, dissociation constants (Kd) for binding of Apo-2L variants (see Tables II and III) to immobilized receptor immunoadhesins were determined from surface plasmon resonance (SPR) measurements on a Pharmacia BIAcore 3000. DR5-IgG (also referred to as Apo-2-IgG) and DcR2-IgG receptor immunoadhesins were prepared as described in WO98/51793 published November 19, 1998 and WO99/10484 published Mar. 9, 1999, respectively. DR4-IgG was prepared as follows. A mature DR4 ECD sequence (amino acids 1-218; Pan et al., supra) was cloned into a pCMV-1 Flag vector (Kodak) downstream of the Flag signal sequence and fused to the CH1, hinge and Fc region of human immunoglobulin G₁ heavy chain as described previously [Aruffo et al., Cell, 61:1303-1313 (1990)]. The immunoadhesin was expressed by transient transfection into human 293 cells and purified from the cell supernatants by protein A affinity chromatography, as described by Ashkenazi et al., Proc. Natl. Acad. Sci., 88:10535-10539 (1991)]. The receptor immunoadhesin proteins were coupled to the sensor chip surface at a level of 300-500 resonance units using amine coupling chemistry (Pharmacia Biosensor). Sensorgrams were recorded for Apo-2L binding at concentrations ranging from 15.6 nM to 500 nM in 2-fold increments. The kinetics constants were determined by non-linear regression analysis and used to calculate the binding constants.

DR4-IgG [6] = biological target: T1, DR4-IgG; test: as above
Procedure: as §2

DR5-IgG [7] = biological target: T4, DR5-IgG (human); test: as above
T4 construct: also called Apo-2-IgG
Procedure: as §2

DR4-IgG [8] = biological target: T1, DR4-IgG; test: BIAcore SPR, receptor-IgG immobilised
Procedure: as §2
(§3) These variants were expressed and purified, the purified proteins were assayed for receptor-binding by BIAcore® and bioactivity on SK-MES lung carcinoma cells, as previously described (see, e.g. Hymowitz et al. (2000) Biochemistry 39, 633-640).

DR5-IgG [9] = biological target: T4, DR5-IgG; test: BIAcore SPR, receptor-IgG immobilised
Procedure: as §2, §3

DR5-IgG [10] = biological target: T4, DR5-IgG; test: BIAcore SPR; KD relative to Flag.Apo2L.WT
DR5-IgG [11] = biological target: T4, DR5-IgG; test: AlphaQuest displacement of biotinylated Apo2L/TRAIL from receptor-IgG; ratio to Flag-Apo2L.WT
Text: as §1

DR5-IgG [12] = biological target: DR5-IgG (human); test: BIAcore SPR, receptor-IgG immobilised
Procedure: as §2, §3

B1: Flag-Apo2L.DR4-8 (ligand)
chain: VRERGPQRVAAHITGTRGRSNTLSSPNSKNEKALGRKINSWESSRSGHSFLSNLHLRNGELVIHEKGFYYIYSQTAFRFSEEIKEVTRNDKQMVQYIYKWTDYPDPILLMKSARNSCWSKDAEYGLYSIYQGGIFELKENDRIFVSVTNEHLIDMDHEASFFGAFLVG
- KD ratio (mut/wt) (DR5-IgG [1]): 1100 ratio (mut/wt)
- KD ratio (mut/wt) (DR4-IgG [2]): 0.2 ratio (mut/wt)
- IC50 ratio (mutant/wt) (DR4-IgG [3]): 1 ratio (mutant/wt)
- IC50 ratio (mutant/wt) (DcR2-IgG): 15 ratio (mutant/wt)
- IC50 ratio (mutant/wt) (DcR1 receptor-IgG): 5.5 ratio (mutant/wt)

B2: Flag-Apo2L.DR5-21 (ligand)
chain: VRERGPQRVAAHITGTRGRSNTLSSPNSKNEKALGRKINSWESSRSGHSFLSNLHLRNGELVIHEKGFYYIYSQTAFKFKEEIKENTKNDKQMVQYIYKYTSYPDPILLMKSARNSCWSKDAEYGLYSIYQGGIFELKENDRIFVSVTNEDLLNMEHEASFFGAFLVG
- IC50 ratio (mutant/wt) (DcR2-IgG): 9.4 ratio (mutant/wt)

B3: Flag-Apo2L.DR5-2 (ligand)
chain: VRERGPQRVAAHITGTRGRSNTLSSPNSKNEKALGRKINSWESSRSGHSFLSNLHLRNGELVIHEKGFYYIYSQTAFKFKEEIKENTKNDKQMVQYIYKYTSYPDPILLMKSARNSCWSKDAEYGLYSIYQGGIFELKENDRIFVSVTNEHLIDMDHEASFFGAFLVG
- KD ratio (mut/wt) (DR5-IgG [1]): 1.9 ratio (mut/wt)
- KD ratio (mut/wt) (DR4-IgG [2]): 11 ratio (mut/wt)
- IC50 ratio (mutant/wt) (DR5-IgG [4]): 2.8 ratio (mutant/wt)
- IC50 ratio (mutant/wt) (DcR2-IgG): 5 ratio (mutant/wt)

B4: Apo2L/TRAIL(114-281) mutant DR5-5 (ligand)
chain: VRERGPQRVAAHITGTRGRSNTLSSPNSKNEKALGRKINSWESSRSGHSFLSNLHLRNGELVIHEKGFYYIYSQTSFRFTEEIKENTKNDKQMVQYIYKYTSYPDPILLMKSARNSCWSKDAEYGLYSIYQGGIFELKENDRIFVSVTNEGLLDMNHEASFFGAFLVG
- KD ratio (mutant/wt) (DR5-IgG [5]): 2.5 ratio (mutant/wt)
- KD ratio (mutant/wt) (DR4-IgG [6]): 12.4 ratio (mutant/wt)

B5: Flag-Apo2L.DR4-9 (ligand)
chain: VRERGPQRVAAHITGTRGRSNTLSSPNSKNEKALGRKINSWESSRSGHSFLSNLHLRNGELVIHEKGFYYIYSQTAFRFSEEIKERTRNDKQMVQYIYKWTDYPDPILLMKSARNSCWSKDAEYGLYSIYQGGIFELKENDRIFVSVTNEHLIDMDHEASFFGAFLVG
- KD ratio (mut/wt) (DR5-IgG [1]): 1200 ratio (mut/wt)
- KD ratio (mut/wt) (DR4-IgG [2]): 4.3 ratio (mut/wt)
- IC50 ratio (mutant/wt) (DR4-IgG [3]): 1.1 ratio (mutant/wt)
- IC50 ratio (mutant/wt) (DcR2-IgG): 18 ratio (mutant/wt)
- IC50 ratio (mutant/wt) (DcR1 receptor-IgG): 4 ratio (mutant/wt)

B6: Apo2L/TRAIL(114-281) mutant DR5-23 (ligand)
chain: VRERGPQRVAAHITGTRGRSNTLSSPNSKNEKALGRKINSWESSRSGHSFLSNLHLRNGELVIHEKGFYYIYSQTAFKFREEIKENTKNDKQMVQYIYKYTSYPDPILLMKSARNSCWSKDAEYGLYSIYQGGIFELKENDRIFVSVTNESLLDMEHEASFFGAFLVG
notes: Untagged, from pAPOK5.0, purified from E. coli
- KD ratio (mutant/wt) (DR4-IgG [6]): 105 ratio (mutant/wt)
- KD ratio (mutant/wt) (DR5-IgG [7]): 2.4 ratio (mutant/wt)

B7: Apo2L/TRAIL(114-281) mutant DR5-11 (ligand)
chain: VRERGPQRVAAHITGTRGRSNTLSSPNSKNEKALGRKINSWESSRSGHSFLSNLHLRNGELVIHEKGFYYIYSQTAFRFKEEIKENTKNDKQMVQYIYKYTSYPDPILLMKSARNSCWSKDAEYGLYSIYQGGIFELKENDRIFVSVTNEGLVDMSHEASFFGAFLVG
- KD ratio (mutant/wt) (DR5-IgG [5]): 2.2 ratio (mutant/wt)
- KD ratio (mutant/wt) (DR4-IgG [6]): 5 ratio (mutant/wt)

B8: Apo2L.DR5-8 (ligand)
chain: VRERGPQRVAAHITGTRGRSNTLSSPNSKNEKALGRKINSWESSRSGHSFLSNLHLRNGELVIHEKGFYYIYSQTQFKFREEIKENTKNDKQMVQYIYKYTSYPDPILLMKSARNSCWSKDAEYGLYSIYQGGIFELKENDRIFVSVTNERLLQMDHEASFFGAFLVG
notes: also called Apo2L/TRAIL.DR5-8
- DR4-binding (ratio relative to wild-type Apo2L) (DR4-IgG [8]): > 25 ratio relative to wild-type Apo2L
- DR5-binding (ratio relative to wild-type Apo2L) (DR5-IgG [9]): 0.6 ratio relative to wild-type Apo2L

B9: Flag-Apo2L.DR5-1 (ligand)
chain: VRERGPQRVAAHITGTRGRSNTLSSPNSKNEKALGRKINSWESSRSGHSFLSNLHLRNGELVIHEKGFYYIYSQTAFKFKEEIKENTKNDKQMVQYIYKYTSYPDPILLMKSARNSCWSKDAEYGLYSIYQGGIFELKENDRIFVSVTNEALIDMDHEASFFGAFLVG
- KD ratio (mut/wt) (DR5-IgG [1]): 2.2 ratio (mut/wt)
- KD ratio (mut/wt) (DR4-IgG [2]): 11 ratio (mut/wt)
- IC50 ratio (mutant/wt) (DR5-IgG [4]): 2.4 ratio (mutant/wt)
- IC50 ratio (mutant/wt) (DcR2-IgG): 32 ratio (mutant/wt)

B10: Apo2L/TRAIL(114-281) mutant DR5-4 (ligand)
chain: VRERGPQRVAAHITGTRGRSNTLSSPNSKNEKALGRKINSWESSRSGHSFLSNLHLRNGELVIHEKGFYYIYSQTAFRFREEIKENTKNDKQMVQYIYKYTSYPDPILLMKSARNSCWSKDAEYGLYSIYQGGIFELKENDRIFVSVTNEQLLDMNHEASFFGAFLVG
- KD ratio (mutant/wt) (DR5-IgG [5]): 1.3 ratio (mutant/wt)
- KD ratio (mutant/wt) (DR4-IgG [6]): 3.1 ratio (mutant/wt)

B11: Flag-Apo2L.DR5-8 (ligand, not shown: small tags and cut ends)
chain: VRERGPQRVAAHITGTRGRSNTLSSPNSKNEKALGRKINSWESSRSGHSFLSNLHLRNGELVIHEKGFYYIYSQTQFKFREEIKENTKNDKQMVQYIYKYTSYPDPILLMKSARNSCWSKDAEYGLYSIYQGGIFELKENDRIFVSVTNERLLQMDHEASFFGAFLVG
modifications: N-terminal Flag epitope tag (pFLAG-MAC) is not written because its letters are not given
- KD ratio (mut/wt) (DR5-IgG [10]): 0.8 ratio (mut/wt)
- IC50 ratio (mutant/wt) (DR5-IgG [11]): 0.7 ratio (mutant/wt)

B12: Apo2L.DR5-8B (ligand)
chain: VRERGPQRVAAHITGTRGRSNTLSSPNSKNEKALGRKINSWESSRSGHSFLSNLHLRNGELVIHEKGFYYIYSQTQFKFREEIKENTKNDKQMVQYIYKYTSYPDPILLMKSARNSCWSKDAEYGLYSIYQGGIFELKENDRIFVSVTNEHLIDMDHEASFFGAFLVG
- DR5-binding (ratio relative to wild-type Apo2L) (DR5-IgG [12]): 0.6 ratio relative to wild-type Apo2L
- DR4-binding (ratio relative to wild-type Apo2L) (DR4-IgG [8]): 2.5 ratio relative to wild-type Apo2L

B13: Apo2L.DR5-8C (ligand)
chain: VRERGPQRVAAHITGTRGRSNTLSSPNSKNEKALGRKINSWESSRSGHSFLSNLHLRNGELVIHEKGFYYIYSQTQFKFREEIKENTKNDKQMVQYIYKYTSYPDPILLMKSARNSCWSKDAEYGLYSIYQGGIFELKENDRIFVSVTNEHLLDMDHEASFFGAFLVG
- DR5-binding (ratio relative to wild-type Apo2L) (DR5-IgG [12]): 0.6 ratio relative to wild-type Apo2L
- DR4-binding (ratio relative to wild-type Apo2L) (DR4-IgG [8]): 5.5 ratio relative to wild-type Apo2L
